Measurements taken from US20200247855A1, “THERAPY AND DIAGNOSTICS” (OXFORD UNIVERSITY INNOVATION LIMITED, priority 2017, published 2020).
Where two headings read alike, the source gives them in different places.

T1: CCL14_HUMAN (Homo sapiens, UniProt Q16627)
T1 sequence (Q16627 20-93): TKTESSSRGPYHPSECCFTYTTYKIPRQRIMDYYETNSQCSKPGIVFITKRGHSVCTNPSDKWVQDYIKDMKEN

T2: CCL15_HUMAN (Homo sapiens, UniProt Q16663)
T2 sequence (Q16663 22-113): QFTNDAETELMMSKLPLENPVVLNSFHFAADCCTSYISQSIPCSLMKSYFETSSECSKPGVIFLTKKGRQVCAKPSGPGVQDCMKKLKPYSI

T3: CCL16_HUMAN (Homo sapiens, UniProt O15467)
T3 sequence (O15467 24-120): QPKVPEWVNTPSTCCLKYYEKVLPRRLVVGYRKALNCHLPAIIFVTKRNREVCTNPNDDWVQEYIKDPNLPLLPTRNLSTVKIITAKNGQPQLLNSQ

T4: CCL3_HUMAN (Homo sapiens, UniProt P10147)
T4 sequence (P10147 24-92): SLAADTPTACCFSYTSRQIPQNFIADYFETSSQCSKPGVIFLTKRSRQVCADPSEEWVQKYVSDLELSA

T5: CCL8_HUMAN (Homo sapiens, UniProt P80075)
T5 sequence (P80075 24-99): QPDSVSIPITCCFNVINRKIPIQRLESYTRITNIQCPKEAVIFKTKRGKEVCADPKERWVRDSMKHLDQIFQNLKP

T6: CCL5_HUMAN (Homo sapiens, UniProt P13501)
T6 sequence (P13501 24-91): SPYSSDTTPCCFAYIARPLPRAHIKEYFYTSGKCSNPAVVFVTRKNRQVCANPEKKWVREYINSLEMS

T7: CCL17_HUMAN (Homo sapiens, UniProt Q92583)
T7 sequence (Q92583 24-94): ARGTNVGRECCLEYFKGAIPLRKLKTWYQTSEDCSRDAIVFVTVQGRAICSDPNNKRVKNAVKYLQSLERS

T8: CCL19_HUMAN (Homo sapiens, UniProt Q99731)
T8 sequence (Q99731 22-98): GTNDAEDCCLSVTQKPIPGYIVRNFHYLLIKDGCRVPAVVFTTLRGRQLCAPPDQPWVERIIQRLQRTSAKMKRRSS

B1: P1243_AMBAM: tick CKBP, Amblyomma americanum; AAM-02 stated identical (protein, listed as Amblyomma americanum)
chain: RNHTEDNSTEYYDYEEARCACPARHLNNTNGTVLKLLGCHYFCNGTLCTAPDGYPCYNLTAQQVRTLTTYPNTSCAVGVCMKGTCVKNGTMEQCFKTP
B2: P672_RHIPU: tick CKBP, Rhipicephalus pulchellus (protein, listed as Rhipicephalus pulchellus)
chain: VCEVSEQEGVGEDNATEDEDYEDFFKPVTCYFANSTVGPLRPPNCTVVCTNNTAWWNDTKSDGGHCYSEYRPEKRTHSREIYNCTIGVCGNGTCIANHTYADCW
B3: EVASIN4: previously described tick CKBP evasin 4, from Rhipicephalus sanguineus (protein, listed as Rhipicephalus sanguineus)
chain: EVPQMTSSSAPDLEEEDDYTAYAPLTCYFTNSTLGLLAPPNCSVLCNSTTTWFNETSPNNASCLLTVDFLTQDAILQENQPYNCSVGHCDNGTCAGPPRHAQCW

Columns and labels:
CCL14_HUMAN = biological target: T1, CCL14_HUMAN; assay: Biolayer interferometry (BLI) binding
Method in brief: (§1)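 Ni-NTA biosensor loaded with His-tagged tick chemokine-binding protein; 300 nM chemokine cross-binding screen; hits repeated with chemokine dose series; Kd from fitted kinetic and equilibrium data.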

CCL15_HUMAN = biological target: T2, CCL15_HUMAN; assay: Biolayer interferometry (BLI) binding
Method in brief: as §1

CCL16_HUMAN = biological target: T3, CCL16_HUMAN; assay: Biolayer interferometry (BLI) binding
Method in brief: as §1

CCL3L1_HUMAN = CCL3L1_HUMAN (Homo sapiens, UniProt P16619); assay: Biolayer interferometry (BLI) binding
Method in brief: as §1

CCL3_HUMAN = biological target: T4, CCL3_HUMAN; assay: Biolayer interferometry (BLI) binding
Method in brief: as §1

CCL7_HUMAN = CCL7_HUMAN (Homo sapiens, UniProt P80098); assay: Biolayer interferometry (BLI) binding
Method in brief: as §1

CCL8_HUMAN = biological target: T5, CCL8_HUMAN; assay: Biolayer interferometry (BLI) binding
Method in brief: as §1

CCL5_HUMAN = biological target: T6, CCL5_HUMAN; details: read-out: Kd, CCL5_HUMAN, previously described evasins; data obtained from publications [20-22,32]; cited from earlier work
CCL17_HUMAN = biological target: T7, CCL17_HUMAN; details: read-out: Kd, CCL17_HUMAN, previously described evasins; data obtained from publications [20-22,32]; cited from earlier work
CCL19_HUMAN = biological target: T8, CCL19_HUMAN; details: read-out: Kd, CCL19_HUMAN, previously described evasins; data obtained from publications [20-22,32]; cited from earlier work

Sequence of CCL7_HUMAN (P80098 24-99): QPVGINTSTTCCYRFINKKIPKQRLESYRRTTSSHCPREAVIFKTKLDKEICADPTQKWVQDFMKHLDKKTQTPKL
Sequence of CCL3L1_HUMAN (P16619 24-93): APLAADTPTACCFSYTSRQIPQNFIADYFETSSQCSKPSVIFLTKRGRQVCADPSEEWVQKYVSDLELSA

Molecule | Kd (CCL14_HUMAN) [nM] | Kd (CCL15_HUMAN) [nM] | Kd (CCL16_HUMAN) [nM] | Kd (CCL3L1_HUMAN) [nM] | Kd (CCL3_HUMAN) [nM] | Kd (CCL7_HUMAN) [nM] | Kd (CCL8_HUMAN; read-out: Kd, CCL8_HUMAN) [nM] | Kd (CCL8_HUMAN; read-out: Kd for CCL8) [nM] | Kd (CCL5_HUMAN) [nM] | Kd (CCL17_HUMAN) [nM] | Kd (CCL19_HUMAN) [nM]
B1 | 0.816 | 9.61 | 0.926 | 5.05 | 5.3 | 8.66 | 21.9 | – | – | – | –
B2 | 5.5 | 32 | 3.3 | 2.7 | 2.6 | 16 | – | 3.7 | – | – | –
B3 | – | – | – | – | – | – | – | – | 0.09 | 0.61 | 0.14
